According to patent US5336488A, “Method of treating or preventing mastitis in animals with involuting mammary glands by administering recombinant cytokines” (American Cyanamid Company, priority 1992, dated 1994):

Key:
milk PMNs [1] = test: Quantity of milk PMNs after intramammary infusion; format: in vivo, bovine (Holstein dairy cattle)
Method: (§1) FIGS. 2(A-I): Quantity and Quality of Milk PMNs from Mammary Glands Infused with r-BolL-1 or r-BoIL-2
(§2) A total of 12 mammary glands from normal lactating Holstein dairy cattle are infused through the teat canal with either 200 μg of r-BoIL-1; 2 mg of r-BoIL-2; or 1 mg of r-BoGM-CSF. Milk samples are collected and the number of viable somatic cells counted on a Coulter® ZM with a C256 Channelyzer. The data is expressed as the somatic cell count per ml of milk sampled at 16, 40, 64 and 88 hours after infusion for r-BoIL-1 (A); r-BoIL-2 (D); or r-BoGM-CSF(G). The total percentage of phagocytosis by milk PMNs (polymorphonuclear cells) is quantitatively measured by flow cytometry by measuring the percentage of cells ingesting 2μ fluorescent beads for r-BoIL-1 (B); r-BoIL-2(E); or r-BoGM-CSF(H). The total population is first gated by forward angle light scatter, FALS and 90° light scatter to only consider viable polymorphonuclear cells. The induction of superoxide after PMA (520.eta.g)stimulation is also monitored using a whole cell cytochrome-c reduction assay, for r-BoIL-1 (C); r-BoIL-2(F); or r-BoGM-CSF(I). PMNs from untreated milk could not be induced to produce superoxide, while peripheral blood PMNs are inducible in a range of 5-15 .eta.M O2 /Minute/10^7 PMNs.

[2] = Specific biological activity of recombinant cytokine protein; settings: for in vitro specific bioactivities: r-BoIL-1 compared with r-BoIL-2; for biological activity: mass of protein
milk PMNs [3] = test: Phagocytosis of fluorescent beads by milk PMNs (flow cytometry) after intramammary infusion; format: in vivo, bovine (Holstein dairy cattle)
Method: as §1, §2

milk PMNs [4] = test: Inducible superoxide of milk PMNs after PMA stimulation (cytochrome-c reduction); format: in vivo, bovine (Holstein dairy cattle)
Method: as §1, §2

Bovine Mammary Gland = test: Dose response of bovine mammary gland to intramammary infusion: somatic cell influx into milk; format: in vivo, bovine (Holstein dairy cattle); settings: for infiltration of somatic cells into the milk: lactating cattle, FIG. 1; for minimal effective dose: somatic cell influx
Method: FIG. 1: Dose Response of Bovine Mammary Gland to Intramammary Infusion of Recombinant Cytokines
Five fold serial dilutions of r-BolL-1 (recombinant bovine interleukin-1) from 312.5 μg to […]: r-BoIL-2 (recombinant bovine interleukin-2) from 40 mg to 0.1 mg: and r-BoGM-CSF (recombinant bovine granulocyte macrophage colony stimulating factor) from 0.2 mg to […] are administered at time 0 into 3-4 mammary glands from normal lactating Holstein dairy cattle. A total of 54 mammary gland quarters, 3-4 per group, are infused through the teat canal with various concentrations of recombinant bovine cytokines after the morning milking. Milk samples are collected and the number of viable somatic cells counted on a Coulter® ZM with a C256 Channelyzer. The data is expressed as the somatic cell count per ml of milk
These doses are guidelines for quantitative induction of somatic cells, but significant beneficial qualitative changes can be induced with lower doses. The specific biological activity for r-BoIL-1 as a chemoattractant is approximately 10,000 fold greater than r-BoIL-2, although the in vitro specific bioactivities are equivalent. Active IL-2 inhibition or decreased biostability in milk might explain this discrepancy. The peak number of cells after r-BoIL-1 infusion with a maximal tolerable dose is 4-5 fold greater than r-BoIL-2. The kinetics of PMN migration into the mammary gland is such that migration occurs 8- 24 hours sooner for r-BoIL-1 infusions […] the BolL-2 infusion depending upon the dose. The dominant cell type after r-BoIL-1 or r-BoIL-2 infusion is PMNs.

S. aureus = test: Therapy of established S. aureus mastitis infections; format: in vivo, S. aureus (in lactating Holstein dairy cattle); settings: for most efficacious dosing: compared with a single bolus; for dose response of therapeutic efficacy / therapeutic efficacy in infected mammary glands: intramammary infusion
Method: The percentage of quarters clearing the infection for greater than 1 milking (RESPONDING), as compared to the percentage of quarters which actually cure their infections (CURE) is a measure of the failure of the host cells to kill the bacteria. The relapse rate is the greatest for r-BoIL-2 (combined relapse rate of 40% for the 10 mg dose X's 3). […] Furthermore, if activation of the host cells is effective, as indicated by the r-BoIL-2 and r-BoGM-CSF, then a combination therapy with r-BoIL-1 or antibiotics is useful.
^1 S. aureus infections are established 2-3 weeks prior to treatment.
Treatments are administered after the AM or PM milking by 1-3 successive
intramammary infusions. A total of 120 mammary glands from 28 different
lactating Holstein dairy cattle are used. Recombinant bovine
interleukin1(IL-1) and interleukin2(IL-2) are obtained from IMMUNEX Corp.
Seattle, WA. Na cephapirin is prepared is PBS; and CefaLak ®
(BristolMeyers) is used according to package# insert instructions.
^2 Cytokines are infused intramammary through the teat canal after th
PM milking at the indicated intervals. The total dose is delivered in a
total volume of 10 ml of sterile PBS. The biological activity of rBoIL-1
and rBoIL-2 is 32,000 Units/μg and 22,000 Units/μg, respectively. A
total dose per infusion 200 mg of Na cephapirin and CefaLak ® is
administered after consecutive PM and AM milkings, according to described
^3 The % RESPONDING = quarters which transiently (> 1 milking) are
free of S. aureus divided by the total number of quarters treated.
^4 The % CURED QUARTERS = # of quarters which clear their infection
and remain free of S. aureus divided by the total number of quarters
treated. Infections are considered to have relapsed if there are > 1 CFUs
from three consecutive AM milkings, or > 20 CFUs for two consecutive afte
therapy at anytime during the 14 day monitoring period.
^5 The % RELAPSE = [1 - {[…]}] ×

[5] = IL-1 multiple, 10 μg, interval 24 hrs
[6] = IL-1 multiple, 10 μg, interval 48 hrs
[7] = IL-1 multiple, 200 μg, interval 24 hrs
[8] = IL-1 multiple, 200 μg, interval 48 hrs
[9] = IL-2 multiple, 2 mg, interval 24 hrs
[10] = IL-2 multiple, 10 mg, interval 24 hrs

B1: recombinant bovine interleukin-1 (protein, UniProt P09428 114-266, looked up)
Interleukin-1 beta: APVQSIKCKLQDREQKSLVLASPCVLKALHLLSQEMNREVVFCMSFVQGEERDNKIPVALGIKDKNLYLSCVKKGDTPTLQLEEVDPKVYPKRNMEKRFVFYKTEIKNTVEFESVLYPNWYISTSQIEERPVFLGHFRGGQDITDFRMETLSP
notes: recombinant bovine interleukin-1, obtained from IMMUNEX Corp. Seattle, WA
- increase over the pre-treatment number of PMNs (milk PMNs [1]; 16 hours, 200 μg, FIG. 2A): 150 ×
- increase over the pre-treatment number of PMNs (milk PMNs [1]; 40 hours, 200 μg, FIG. 2A): 20 ×
- number of PMNs (milk PMNs [1]; by 112 hours, 200 μg, FIG. 2A): back to normal levels by 112 hours
- in vitro specific bioactivities [2]: equivalent
- biological activity [2]: 32,000 Units/μg
- phagocytosis (milk PMNs [3]; 200 μg r-BoIL-1, FIG. 2B): unaffected
- inducible superoxide upon phorbol ester stimulation (milk PMNs [4]; 200 μg r-BoIL-1, vs resident PMNs, FIG. 2C): significantly increased over the resident PMNs
- PMN migration into the mammary gland occurs sooner than with BoIL-2 infusion (Bovine Mammary Gland; depending upon the dose): 8 to 24 h
- dominant cell type after infusion (Bovine Mammary Gland; intramammary infusion): PMNs
- maximal tolerable dose (Bovine Mammary Gland; intramammary infusion): 1000 mg
- infiltration of somatic cells into the milk (Bovine Mammary Gland; intramammary infusion): induce an infiltration of somatic cells into the milk in a dose related manner
- specific biological activity as a chemoattractant, greater than r-BoIL-2 (Bovine Mammary Gland; intramammary infusion, relative to r-BoIL-2): approximately 10,000 fold
- minimal effective dose (Bovine Mammary Gland; intramammary infusion): 0.5 mg
- peak number of cells after infusion, greater than r-BoIL-2 (Bovine Mammary Gland; maximal tolerable dose, relative to r-BoIL-2): 4-5 fold
- % CURES (S. aureus; [5]): 8%
- % RELAPSE (S. aureus; [5]): 90%
- % RESPONSE (S. aureus; [5]): 77%
- % CURES (S. aureus; [6]): 0%
- % RELAPSE (S. aureus; [6]): 100%
- % RESPONSE (S. aureus; [6]): 39%
- % CURES (S. aureus; [7]): 7%
- % RELAPSE (S. aureus; [7]): 91%
- % RESPONSE (S. aureus; [7]): 79%
- % CURES (S. aureus; [8]): 29%
- % RELAPSE (S. aureus; [8]): 54%
- % RESPONSE (S. aureus; [8]): 64%
- % CURES (S. aureus; IL-1 single, 10 μg): 11%
- % RELAPSE (S. aureus; IL-1 single, 10 μg): 0%
- % RESPONSE (S. aureus; IL-1 single, 10 μg): 11%
- % CURES (S. aureus; IL-1 single, 200 μg): 0%
- % RELAPSE (S. aureus; IL-1 single, 200 μg): 100%
- % RESPONSE (S. aureus; IL-1 single, 200 μg): 20%
- % CURES (S. aureus; IL-1 single, 600 μg): 0%
- % RELAPSE (S. aureus; IL-1 single, 600 μg): 100%
- % RESPONSE (S. aureus; IL-1 single, 600 μg): 10%
- relapse rate (S. aureus; as quoted in text of Example 5): 54%
- most efficacious dosing (S. aureus): most efficacious if doses are administered over 3 consecutive milkings
- dose response of therapeutic efficacy (S. aureus): dose response therapeutic efficacy
- therapeutic efficacy in infected mammary glands (S. aureus): effectively treated

B2: recombinant bovine interleukin-2 (protein, UniProt P05016 21-155, looked up)
Interleukin-2: APTSSSTGNTMKEVKSLLLDLQLLLEKVKNPENLKLSRMHTFDFYVPKVNATELKHLKCLLEELKLLEEVLNLAPSKNLNPREIKDSMDNIKRIVLELQGSETRFTCEYDDATVNAVEFLNKWITFCQSIYSTMT
notes: recombinant bovine interleukin-2, obtained from IMMUNEX Corp. Seattle, WA
- milk PMNs (quantity) (milk PMNs [1]; 2 mg, FIG. 2D): quantitative increase in milk PMNs
- milk PMNs (quantity), decline (milk PMNs [1]; after 72 hours, 2 mg, FIG. 2D): diminishes after 72 hours, to control levels
- in vitro specific bioactivities [2]: equivalent
- biological activity [2]: 22,000 Units/μg
- biological activity ([2]; Table 3 footnote 3): 22,000 Units μg
- percent phagocytosis (milk PMNs [3]; by 112 hrs, 2 mg r-BoIL-2, FIG. 2E): still above the pre-treatment level
- average number of ingested beads per phagocytic cell (milk PMNs [3]; r-BoIL-2, upon activation): increased upon activation
- phagocytosis increase over resident PMNs (milk PMNs [3]; within 40-64 hours, 2 mg r-BoIL-2, FIG. 2E): 2-3 fold
- inducible superoxide, duration (milk PMNs [4]; 2 mg r-BoIL-2, FIG. 2F): remains throughout the 96 hours of sampling
- inducible superoxide (milk PMNs [4]; 2 mg r-BoIL-2, vs resident PMNs, FIG. 2F): significantly increased over the resident PMNs
- dominant cell type after infusion (Bovine Mammary Gland; intramammary infusion): PMNs
- maximal tolerable dose (Bovine Mammary Gland; intramammary infusion): 30 mg
- infiltration of somatic cells into the milk (Bovine Mammary Gland; intramammary infusion): induce an infiltration of somatic cells into the milk in a dose related manner
- minimal effective dose (Bovine Mammary Gland; intramammary infusion): 0.5 mg
- combined relapse rate (S. aureus; 10 mg dose X's 3): 40%
- % CURES (S. aureus; [9]): 9%
- % RELAPSE (S. aureus; [9]): 84%
- % RESPONSE (S. aureus; [9]): 55%
- % CURES (S. aureus; [10]): 25%
- % RELAPSE (S. aureus; [10]): 57%
- % RESPONSE (S. aureus; [10]): 58%
- % RESPONSE (S. aureus; IL-2 multiple, 10 mg, interval 48 hrs): 33%
- % CURES (S. aureus; IL-2 single, 2 μg): 0%
- % RESPONSE (S. aureus; IL-2 single, 2 μg): 0%
- % CURES (S. aureus; IL-2 single, 10 μg): 0%
- % RELAPSE (S. aureus; IL-2 single, 10 μg): 100%
- % RESPONSE (S. aureus; IL-2 single, 10 μg): 20%
- % CURES (S. aureus; IL-2 single, 30 μg): 10%
- % RELAPSE (S. aureus; IL-2 single, 30 μg): 0%
- % RESPONSE (S. aureus; IL-2 single, 30 μg): 10%
- most efficacious dosing (S. aureus): most efficacious if doses are administered over 3 consecutive milkings
- dose response of therapeutic efficacy (S. aureus): dose response therapeutic efficacy
- therapeutic efficacy in infected mammary glands (S. aureus): effectively treated
